Key:
[1] = biological target: Q61L Cdc42·[3H]GTP (UniProt P60953); experiment: scintillation proximity assay (competition); competitor titrated into 30 nM [3H]GTP·Rac1 or [3H]GTP·Cdc42 and 30 nM GST-p50 RhoGAP immobilised on fluoromicrospheres via an anti-GST antibody; partial competition model for RLIP76 GAP and didomain, full competition for GAP insert and free p50 RhoGAP
[2] = biological target: Q61L Rac1·[3H]GTP (UniProt P63000); experiment: as above
[3] = biological target: GST-p50 RhoGAP; experiment: scintillation proximity assay (direct); GST-p50 RhoGAP on SPA beads; [3H]GTP·Cdc42 or [3H]GTP·Rac1 in solution; values used as fixed Kd in the competition fits
[4] = biological target: Rac1 (Homo sapiens) (UniProt P63000); settings: cited from earlier work
[5] = biological target: Cdc42 (Homo sapiens) (UniProt P60953); settings: cited from earlier work
Sequence of Cdc42 (Homo sapiens) (P60953 1-188): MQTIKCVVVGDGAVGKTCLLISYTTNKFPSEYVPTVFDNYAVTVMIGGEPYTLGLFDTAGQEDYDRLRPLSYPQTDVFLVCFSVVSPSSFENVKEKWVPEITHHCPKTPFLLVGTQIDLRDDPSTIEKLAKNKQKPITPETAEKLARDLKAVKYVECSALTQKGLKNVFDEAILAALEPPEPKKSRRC

Sequence of Q61L Cdc42·[3H]GTP (P60953 whole entry Q61L): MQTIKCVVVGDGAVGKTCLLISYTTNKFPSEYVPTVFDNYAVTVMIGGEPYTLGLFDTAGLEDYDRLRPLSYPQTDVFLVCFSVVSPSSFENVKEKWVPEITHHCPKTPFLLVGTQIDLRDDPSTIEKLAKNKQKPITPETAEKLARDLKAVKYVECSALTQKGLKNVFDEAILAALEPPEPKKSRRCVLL

Substance | Kd [1] [nM] | Kd [2] [nM] | Kd [3] [nM] | Kd [4] [nM] | Kd [5] [nM]
His-RLIP76 GAP domain (residues 184-380) (from UniProt Q15311 184-380) (domain or fragment) | 6190 | 1680 | – | – | –
His-RLIP76 GAP-GBD didomain (residues 184-446) (from UniProt Q15311 184-446) (domain or fragment) | 5590 | 2340 | – | – | –
Q61L Cdc42·[3H]GTP (from UniProt P60953 1-191) (natural protein) | – | – | 80 | – | –
p50 RhoGAP (from UniProt Q07960) | – | – | – | 18 | 24
untagged p50 RhoGAP (domain or fragment) | 247 | 150 | – | – | –

Reference: paper PMC3852207
